Data as given in paper PMC6638984, “Increased association between Epstein-Barr virus EBNA2 from type 2 strains and the transcriptional repressor BS69 restricts EBNA2 activity” (PLoS Pathogens, 2019).
Substitutions are numbered along the chain they refer to. In names and notes the source's numbering stands.

B1: type 2 EBNA2 motif 2 peptide (402-412) (peptide)
peptide: EPPFLFPSDWY
notes: source: synthetic peptide (Peptide Synthetics)
B2: type 2 EBNA2 polypeptide T2 EBNA2_(348-422) (domain or fragment)
chain: SMPQLSPVVSLHQGQGPENSPTPGPSTAGPVCRVTPSATPDISPIHEPESSDSEEPPFLFPSDWYPPTLEPAELD
notes: EBNA2 of type 2 Epstein-Barr virus (AG876), amino acids 348-422 (motifs 1, 2 and 3), in pET47b+; also called T2 E2_(348-422); source: E. coli Rosetta 2 (DE3) pLysS, purified (HisPur cobalt resin, 3C protease cleavage, Superdex 75); not shown: His6, N-terminal, cleaved
B3: type 2 EBNA2 polypeptide T2 EBNA2_(348-422) (domain or fragment)
chain: B2 chain
notes: Monomer alone by SEC-MALS; also called T2 E2_(348-422); type 2 EBNA2_(348-422); source: E. coli Rosetta 2 (DE3) pLysS, purified (cobalt resin, 3C protease cleavage, Superdex 75); not shown: His6, N-terminal, cleaved
B4: EBNA2_(348-422) SD + m3 T1 (domain or fragment)
chain: B2 chain with S62D, T68S, L69I, E70D
notes: EBNA2 of type 2 Epstein-Barr virus (AG876), residues 348-422, with S409D and motif 3 PTLEP replaced by PSIDP; also called T2 EBNA2_(348-422) SD + m3 T1; type 2 EBNA2 double mutant (S409D, PTLEP to PSIDP); source: E. coli Rosetta 2 (DE3) pLysS, purified (cobalt resin, 3C protease cleavage, Superdex 75); not shown: His6, N-terminal, cleaved
B5: T2 EBNA2_(348-422) m3 T1 (PTLEP to the type 1 sequence PSIDP) (domain or fragment)
chain: B2 chain with T68S, L69I, E70D
notes: source: E. coli Rosetta 2 (DE3) pLysS, purified (HisPur cobalt resin, 3C protease cleavage, Superdex 75); not shown: His6, N-terminal, cleaved
B6: T2 EBNA2_(348-422) SD mutant (S409D) (domain or fragment)
chain: B2 chain with S62D
notes: EBNA2 of type 2 Epstein-Barr virus (AG876), residues 348-422, serine to aspartate at position 409; text and methods say position 409; source: E. coli Rosetta 2 (DE3) pLysS, purified (cobalt resin, 3C protease cleavage, Superdex 75); not shown: His6, N-terminal, cleaved
B7: T2 EBNA2_(348-422) motif 3 mt (PTLEP to ATAEA) (domain or fragment)
chain: B2 chain with P67A, L69A, P71A
notes: EBNA2 of type 2 Epstein-Barr virus (AG876), residues 348-422, with motif 3 mutated from PTLEP to ATAEA; also called T2 E2 m3 mt; source: E. coli Rosetta 2 (DE3) pLysS, purified (cobalt resin, 3C protease cleavage, Superdex 75); not shown: His6, N-terminal, cleaved
B8: T2 EBNA2_(348-422) motif 3 mt (PTLEP to ATAEA) (domain or fragment)
chain: B2 chain with P67A, L69A, P71A
notes: EBNA2 of type 2 Epstein-Barr virus (AG876), amino acids 348-422, motif 3 PTLEP_(414-418) mutated to ATAEA; also called T2 EBNA2348-422 m3 mt; source: E. coli Rosetta 2 (DE3) pLysS, purified (HisPur cobalt resin, 3C protease cleavage, Superdex 75); not shown: His6, N-terminal, cleaved
B9: EBNA2_(348-422) SD + m3 mt (domain or fragment)
chain: B2 chain with S62D, P67A, L69A, P71A
notes: EBNA2 of type 2 Epstein-Barr virus (AG876), residues 348-422, with S409D and motif 3 PTLEP mutated to ATAEA; also called type 2 EBNA2 double mutant (S409D, PTLEP to ATAEA); source: E. coli Rosetta 2 (DE3) pLysS, purified (cobalt resin, 3C protease cleavage, Superdex 75); not shown: His6, N-terminal, cleaved
B10: type 2 EBNA2 motif 3 peptide (T2 EBNA2_(412-422)) (peptide)
peptide: YPPTLEPAELD
notes: EBNA2 of type 2 Epstein-Barr virus (AG876), residues 412-422, holding motif 3 (PTLEP 414-418); source: synthetic peptide (Peptide Synthetics)
B11: BS69 coiled-coil MYND domain (BS69_(CC-MYND), amino acids 480-602) (domain or fragment, human, UniProt Q15326 480-602, looked up)
chain: DRMKSDHKRETERVVREALEKLRSEMEEEKRQAVNKAVANMQGEMDRKCKQVKEKCKEEFVEEIKKLATQHKQLISQTKKKQWCYNCEEEAMYHCCWNTSYCSIKCQQEHWHAEHKRTCRRKR
notes: BS69 (ZMYND11), human, amino acids 480-602 comprising the coiled-coil and MYND domains, amplified from pCI-BS69 (full length, isoform 1, 602 amino acids); Dimer by SEC-MALS; Expressed from pET49b+ as a GST-6xHis fusion; the tag was cleaved with 3C protease; also called BS69 CC-MYND domain; ZMYND11; source: E. coli Rosetta 2 (DE3) pLysS, purified (cobalt resin, 3C protease cleavage, GSTrap, …)
B12: type 1 EBNA2 motif 2 peptide (435-445) (peptide)
chain: EAPILFPDDWY
B13: type 2 EBNA2 polypeptide T2 EBNA2_(348-412) (domain or fragment)
chain: SMPQLSPVVSLHQGQGPENSPTPGPSTAGPVCRVTPSATPDISPIHEPESSDSEEPPFLFPSDWY
notes: also called type 2 EBNA2_(348-412); source: E. coli Rosetta 2 (DE3) pLysS, purified (cobalt resin, 3C protease cleavage, Superdex 75); not shown: His6, N-terminal, cleaved

How the values were obtained:
[1] = molecular target: B11; assay: ITC; 1 mM EBNA2 peptide titrated into 0.1 mM BS69_(CC-MYND) in the cell, 25°C, 20 mM Tris-HCl, 100 mM NaCl, 1 mM TCEP, pH 7.5; one-site model with n fixed to 1; conditions: both partners purified
[2] = molecular target: T1, BS69 coiled-coil MYND domain (BS69_(CC-MYND), amino acids 480-602) (human, UniProt Q15326-1 480-602); assay: ITC; EBNA2 polypeptide (0.3 or 0.6 mM) titrated into 0.1 mM BS69_(CC-MYND) in the cell, 19 x 2.0 µl injections, 25°C, 20 mM Tris-HCl, 100 mM NaCl, 1 mM TCEP, pH 7.5; one-site (one event) model; n on monomer concentrations; mean of 3 experiments; conditions: both partners purified
T1 construct: cloned into pET49b+; also called ZMYND11 CC-MYND; source: E. coli Rosetta 2 (DE3) pLysS, purified (HisPur cobalt resin, 3C protease cleavage, Superdex 75); not shown: GST, N-terminal, cleaved; His6, N-terminal, cleaved
T1 sequence (looked up): B11 chain

[3] = molecular target: B11; assay: ITC; EBNA2 polypeptide (0.3 mM) titrated into 0.1 mM BS69_(CC-MYND) in the cell, 29 x 1.3 μl injections, 25°C, 20 mM Tris-HCl, 100 mM NaCl, 1 mM TCEP, pH 7.5; two-site (two event) model; conditions: both partners purified
[4] = molecular target: B11; assay: ITC; EBNA2 polypeptide titrated into 0.1 mM BS69_(CC-MYND) in the cell, 19 x 2.0 μl injections, 25°C, 20 mM Tris-HCl, 100 mM NaCl, 1 mM TCEP, pH 7.5; one-site (one event) model; n calculated for monomeric proteins; conditions: both partners purified
[5] = molecular target: the molecule itself; assay: SEC-MALS; individual polypeptides, 5 mg/ml, Shodex KW403-4F column, 25°C, 20 mM Tris-HCl, 100 mM NaCl, 1 mM TCEP, pH 7.5

Binder: B1
- Kd [1]: 176 µM

Binder: B2
- Kd [2]: 1010 nM

Binder: B3
- dH of the second binding event [3]: -1.59 kcal/mol
- dH [4]: -53.2 kcal/mol
- stoichiometry N [4]: 0.15

Binder: B4
- binding result [3]: binds

Binder: B5
- Kd [2]: 1900 nM
- stoichiometry N [2]: 0.25

Binder: B6
- dH of the second binding event [3]: -7.65 kcal/mol

Binder: B7
- dH [4]: -25.7 kcal/mol
- stoichiometry N [4]: 0.3

Binder: B8
- Kd [2]: 590 nM
- stoichiometry N [2]: 0.31

Binder: B9
- binding result [3]: binds

Binder: B10
- Kd [1]: 219 µM

Binder: B11
- stoichiometry N [5]: 2

Binder: B12
- Kd [1]: 47.7 µM

Binder: B13
- Kd [4]: 1210 nM
- dH [4]: -22.5 kcal/mol
- stoichiometry N [4]: 0.33
